Test results from patent US20230203146A1 (Boehringer Ingelheim, published 2023).
Where a chain is given by its changes, count along the chain named.

B1: VHH 1D01 (VHH, not shown: small tags and cut ends)
VHH: EVQLVESGGGLVQAGGSLRLSCAASGFTFDDYALGWFRQAAGKEREGVSCIRCSDGSTYYADSVKGRFTISSDNAKNTVYLQMNSLKPEDTAVYYCAASIVPRSKLEPYEYDAWGQGTQVTVSS
notes: Parental llama VHH; also called 001D01
B2: VHH 00040 (VHH, not shown: small tags and cut ends)
VHH: B1 VHH with A14P, A41P, S72R, A75S, K87R, Q119L
B3: VHH 00050 (VHH, not shown: small tags and cut ends)
VHH: B1 VHH with A14P, A41P, A75S, K87R, Q119L
B4: VHH 00039 (VHH, not shown: small tags and cut ends)
VHH: B1 VHH with A14P, S72R, A75S, K87R, Q119L
B5: VHH 00925 (VHH, not shown: small tags and cut ends)
VHH: B1 VHH with E1D, A14P, A41P, D55G, A75S, K87R, Q119L
B6: VHH 00049 (VHH, not shown: small tags and cut ends)
VHH: B1 VHH with A14P, A75S, K87R, Q119L
B7: VHH 00051 (VHH, not shown: small tags and cut ends)
VHH: B1 VHH with A14P, D55G, A75S, K87R, Q119L
B8: VHH 00044 (VHH, not shown: small tags and cut ends)
VHH: EVQLVESGGGLVQPGGSLRLSCAASGFALDYYAIGWFRQAPGKEREGVSCISSSDGITYYVDSVKGRFTISRDNSKNTVYLQMNSLRPEDTAVYYCATDSGGYIDYDCMGLGYDYWGQGTLVTVSS
B9: VHH 00046 (VHH, not shown: small tags and cut ends)
VHH: B8 VHH with D55G
B10: VHH 00045 (VHH, not shown: small tags and cut ends)
VHH: B8 VHH with V61A
B11: VHH 00025 (VHH, not shown: small tags and cut ends)
VHH: EVQLVESGGGLVQAGGSLRLSCAASGFTLDDYAIGWFRQAPGKEREGVSTIRDSDGSTYYADSVKGRFTISSDNDKNTVYLQMNSLKPEDTAVYYCAAVPAGRLRFGEQWYPLYEYDAWGQGTLVTVSS
B12: VHH 00054 (VHH, not shown: small tags and cut ends)
VHH: B11 VHH with A14P, T50S, S54N, S72R, D75S, K87R
B13: VHH 00048 (VHH, not shown: small tags and cut ends)
VHH: B11 VHH with T50S
B14: VHH 00043 (VHH, not shown: small tags and cut ends)
VHH: B11 VHH with A14P, T50S, S54N, S72R, D75A, K87R
B15: VHH 00053 (VHH, not shown: small tags and cut ends)
VHH: B11 VHH with A14P, T50S, S54N, S72R, K87R
B16: VHH 00055 (VHH, not shown: small tags and cut ends)
VHH: B11 VHH with T50S, S54N, D55G
B17: VHH 00052 (VHH, not shown: small tags and cut ends)
VHH: B11 VHH with A14P, T50S, S54N, K87R
B18: VHH 00026 (VHH, not shown: small tags and cut ends)
VHH: B11 VHH with T50A
B19: VHH 00041 (VHH, not shown: small tags and cut ends)
VHH: B11 VHH with A14P, T50S, S54N, D75A, K87R
B20: VHH 6H05 (VHH)
VHH: EVQLVESGGGLVQAGGSLRLSCAASGFTFDDYAIGWFRQAPGKEREGVSCISSSDGSTAYADSVKGRFTISSDNAKNTVYLQMNSLKPEDTAVYYCTAVPATRRTPQMVAANVCWLAEYEYDYWGQGTQVTVSS
notes: also called 006H05; not shown: C-terminal c-myc tag and His6 tag
B21: VHH 2F04 (VHH)
VHH: EVQLVESGGGLVQAGGSLRLSCAASGFAFDDHLIGWFRQAPGKEREAVSCISRSAGSTYYADSVKGRFTISSDNAKNTVYLQMNSLKADDTAVYYCAAGPAWGRPASPLPYEYDYWGQGTQVTVSS
notes: also called 002F04; not shown: C-terminal c-myc tag and His6 tag
B22: VHH 10C06 (VHH)
VHH: EVQLVESGGGLVQAGGSLRLSCVASGFTFDDYAIGWFRQAPGKEREGVSCISSSDGSTYYADSVKGRFTISGDNAKNTVYLQMNSLKPEDTAVYYCAAGITPCSDYTQTYEYDVWGQGTQVTVSS
notes: also called 010C06; not shown: C-terminal c-myc tag and His6 tag
B23: VHH 3A07 (VHH)
VHH: EVQLVESGGGLVQPGGSLRLSCAASGFTLDYDAIGWFRQAPGKEREGVSCITSSDGITYYADSVKGRFTISRDNAKNTVYLQMNSLKPEDTAVYYCATGNRRIYYSDYALACFPYEYDYWGQGTQVTVSS
notes: also called 003A07; not shown: C-terminal c-myc tag and His6 tag
B24: VHH 21G10 (VHH)
VHH: EVQLVESGGGLVQAGGSLRLSCAASGFTLDDYAIGWFRQAPGKEREGVSCISSSDGSTTYADSVKGRFTVSSDNAKNTVYLQMNSLKPEDTAVYYCAAGLRGRYYRGTYSLVCAPYEYDFWGQGTQVTVSS
notes: also called 021G10; not shown: C-terminal c-myc tag and His6 tag
B25: VHH 14H02 (VHH)
VHH: EVQLVESGGGLVQAGGSLRLSCAASGFTFDEYAIGWFRQAPGKEREGVSYISSSDGSTYYADSVKGRVTSSSDNAKNTVYLQMNSLKPEDTAVYYCAARPTLRVRLDNDRHHLLYEYEYDYWGQGTQVTVSS
notes: also called 014H02; not shown: C-terminal c-myc tag and His6 tag
B26: VHH 12B03 (VHH)
VHH: EVQLVESGGGLVQSGGSLRLSCAASGFALDYYTIGWFRQAPGKEREGVSCISGGDTSTYYADSVKGRFTISRDNAKNTVYLQMNSLKPEDTAVYYCATDSAGVPAGPAAVYGSTCSRLEYDYWGQGAQVTVSS
notes: also called 012B03; not shown: C-terminal c-myc tag and His6 tag
B27: VHH 16G09 (VHH)
VHH: EVQLVESGGGLVQAGGSLRLVCSASGIDFSINAMAWYRQAPGKQREWVAFMINDSSTDYTDSVKGRFTISRDSTKNILYLQMNNLNVEDTAVYYCNTAYEQHTYWGQGTQVTVSS
notes: also called 016G09; not shown: C-terminal c-myc tag and His6 tag
B28: VHH 3F02 (VHH)
VHH: EVQLVESGGGLVQVGDSLRLACAASGRTFSTYLMVGWFRQAPGKEREFAAGIWSSGDTAYADSVKGRFTISRDNAKNTVYLQMNSLKTEDTAVYYCAGSYDGNYYIPGFYKDWGQGTQVTVSS
notes: also called 003F02; not shown: C-terminal c-myc tag and His6 tag
B29: VHH 00937 (VHH, not shown: small tags and cut ends)
VHH: B11 VHH with A14P, A24V, F27I, T50A, D53E, D55G, D75S, K87R, F106Y, L113I
notes: Cycle 3 variant of 28D10 on the 00908 backbone
B30: VHH 00934 (VHH, not shown: small tags and cut ends)
VHH: B11 VHH with A14P, F27I, T50A, D53E, D55G, D75S, K87R, F106Y, L113I
notes: as for B29
B31: VHH 00936 (VHH, not shown: small tags and cut ends)
VHH: B11 VHH with A14P, A24V, F27I, T50A, S54N, D55G, D75S, K87R, F106Y, L113I
notes: as for B29

Target: T1, FLAG-tagged cynomolgus Ang2 (cynomolgus, UniProt O15123 19-496 (human entry), limits assumed)
T1 construct: N-terminally FLAG-tagged, conditioned medium of HEK293T cells; also called cAng2; FLAG-cAng2
T1 chain: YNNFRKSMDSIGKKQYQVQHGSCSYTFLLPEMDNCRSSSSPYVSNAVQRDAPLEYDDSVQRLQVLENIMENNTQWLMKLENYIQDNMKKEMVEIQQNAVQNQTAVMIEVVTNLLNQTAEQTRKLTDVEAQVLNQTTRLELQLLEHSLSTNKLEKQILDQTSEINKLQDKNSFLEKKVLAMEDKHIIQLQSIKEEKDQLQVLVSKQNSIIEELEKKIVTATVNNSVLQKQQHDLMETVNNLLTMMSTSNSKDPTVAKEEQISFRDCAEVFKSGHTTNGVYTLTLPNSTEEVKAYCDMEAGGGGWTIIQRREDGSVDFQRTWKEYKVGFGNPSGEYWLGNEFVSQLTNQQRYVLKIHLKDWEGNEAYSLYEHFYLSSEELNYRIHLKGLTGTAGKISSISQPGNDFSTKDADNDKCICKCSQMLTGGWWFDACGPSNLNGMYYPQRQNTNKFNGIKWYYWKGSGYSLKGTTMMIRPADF
Experiment: competition ELISA: FLAG-cAng2 binding to coated cTie2-Fc
Procedure: (§1) In brief, 2 μg/mL of recombinant mouse Tie2-Fc or cyno Tie2-Fc is coated overnight at 4° C. in a 96-well MaxiSorp plate (Nunc, Wiesbaden, Germany). Coated wells are blocked with a 1% casein solution.

| Binder | IC50 [nM] |
| --- | --- |
| B1 | 9.1 |
| B2 | 5.8 |
| B3 | 4.8 |
| B4 | 6.4 |
| B5 | 33 |
| B6 | 4.5 |
| B7 | 15 |
| B8 | 0.13 |
| B9 | 0.16 |
| B10 | 0.16 |
| B11 | 1.7 |
| B12 | 11.7 |
| B13 | 1 |
| B14 | 12.6 |
| B15 | 13.8 |
| B16 | 2 |
| B17 | 0.8 |
| B18 | 1.1 |
| B19 | 0.9 |

target: T2, FLAG-tagged mouse Ang2 (mouse, UniProt O35608 19-496); experiment: competition ELISA: FLAG-mAng2 binding to coated mTie2-Fc
T2 construct: N-terminally FLAG-tagged, conditioned medium of HEK293T cells; also called mAng2; FLAG-mAng2
T2 sequence: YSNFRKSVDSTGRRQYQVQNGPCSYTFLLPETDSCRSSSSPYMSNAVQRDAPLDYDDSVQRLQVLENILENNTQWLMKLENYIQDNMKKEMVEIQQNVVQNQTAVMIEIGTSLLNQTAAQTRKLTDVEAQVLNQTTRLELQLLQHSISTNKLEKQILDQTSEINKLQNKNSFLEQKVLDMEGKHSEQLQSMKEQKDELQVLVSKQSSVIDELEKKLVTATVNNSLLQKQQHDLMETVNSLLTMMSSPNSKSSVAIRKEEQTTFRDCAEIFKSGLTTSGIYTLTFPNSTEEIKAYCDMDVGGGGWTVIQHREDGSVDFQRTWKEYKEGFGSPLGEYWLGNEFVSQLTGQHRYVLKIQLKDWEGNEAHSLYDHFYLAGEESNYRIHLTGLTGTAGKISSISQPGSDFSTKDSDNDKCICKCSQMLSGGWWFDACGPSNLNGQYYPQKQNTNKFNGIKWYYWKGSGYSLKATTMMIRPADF
Procedure: as §1

| Binder | IC50 [nM] |
| --- | --- |
| B1 | 12.4 |
| B2 | 29 |
| B3 | 18.6 |
| B4 | 28.1 |
| B5 | 28.4 |
| B6 | 20.3 |
| B7 | 37.9 |
| B8 | 0.091 |
| B9 | 0.083 |
| B10 | 0.11 |

target: T2, FLAG-tagged mouse Ang2; experiment: as above; remark: another data set of the same source
Procedure: as §1

| Binder | IC50 [nM] |
| --- | --- |
| B11 | 4.9 |
| B12 | 22.9 |
| B13 | 2.1 |
| B14 | 29.2 |
| B15 | 36.7 |
| B16 | 4.6 |
| B17 | 2.1 |
| B18 | 2.6 |
| B19 | 1.7 |

target: T3, N-terminally FLAG-tagged mouse Ang2 (HEK293T conditioned medium) (mouse, UniProt O35608 19-496); experiment: competition ELISA, FLAG-mAng2 on coated mTie2-Fc
T3 construct: may be a nucleotide entry; also called mAng2; FLAG-mAng2
T3 sequence: T2 sequence
Procedure: as §1

| Binder | IC50 [nM] |
| --- | --- |
| B20 | 7.7 |
| B21 | 57.4 |
| B22 | 45.2 |
| B23 | 99.3 |
| B24 | 16.8 |
| B25 | 143 |
| B26 | 6.7 |
| B27 | 19.4 |
| B28 | 32.7 |

Target: T1, FLAG-tagged cynomolgus Ang2
Experiment: competition ELISA: FLAG-cAng2 binding to coated cTie2-Fc
Remark: another data set of the same source
Procedure: as §1

| Binder | IC50 [nM] |
| --- | --- |
| B29 | 0.085 |
| B30 | 0.071 |
| B31 | 0.06 |
